According to the DeepSol protein solubility set:

Assay: soluble on expression in E. coli; label from the status in PepcDB or PDB records

With “MSLNTGGNLLCVQLTVRRGPVREAKKPTPRIRNDGRYKIMQIGDLHLSTGVGACREAVPDSYNGGKCEADPRTLDFVNRVLDDEKPDLVVLSGDQVNGDTAPDAPTAMFKIVSLLIERKIPYAAIFGNHDDEKTMSREAQMAIMESLPFSLSTAGPADIDGVGNYYVEVLARGKTDHSALTIYLMDTHAYTPDERNFPGYDWVKPNQIEWFKKTAAGLKKNHNEYTGRHMDIAFIHIPLTEYADPALPRVGEWKEGVTAPVYNSGFRDALVEQGIVMVSAGHDHCNDYCSLSLAGEGETKIPALWMCYAGGSGFGGYAGYGGYHRRVRLFEVDTNEARIKTWKRLESGDTASRIDLQIIVDGGKPQPIAPVSEGHHHHHH” the “soluble on expression in E. coli” value was “not soluble”.

With “MGSDKIHHHHHHLRRLLNTLYVTTPDSYLAREGENILIRLEEKIVFRIPSHNIEAIVYFGYPGASPSLLGLCAEKGITVSFFSPNGRFLARVEGPQTGNVLLRRKQYRMADEENQVPVLAKYFIAAKILNSRAVLQRGRRDHPDKVGDSIERSIALLAGSVKKVFDSENLNDIRGLEGDAAQRYFSEVDNLILEQKQDFFMAARSRRPPLDNVNALLSFFYTLLVHECRAALESVGLDPAVGFLHRDRPGRPSLALDLMEELRPYLGDRMVLSLINRKQINKDDFITKENGAVYVLPDTRKMLLTVWQKRKQEEIIHPYLEEKIPIGLLPYTQALLLARFLRGDLDAYPAFIWK” the “soluble on expression in E. coli” value was “not soluble”.

With “MEALLKEAFLEALKATDPYRLTAKHLPPWRPDLVLAVGKAAAPMLQAALDRYGEVPYHLTLPKGQKAPGLKAVFARHPVPDEESVRAAEEVLGLLQGLSPRARVLALLSGGGSALWCAPLGISLEEKRALTEALLKSGASIHEMNAVRKHLSQIKGGRALLATRAKVHVLLLSDVPGDDPSVIASGPFHPDPTTYAEALALLDRYGLAFPGARAVLRQGVEGRLPETLKPQDPALRRLAWRLVGTNLHLLRAAQRFLRARGFRAAVLSDRFGGEARALARFHAELIEAIRAHGVPFRKPLFLLSGGEAQVRVVGRGRGGRNLEFLLALYAHLKTPLYALAADSDGLDGNSGAAGALLTPAVWEKGLDPRPFLEENDSLGFFQEAGTLLKTGPTGTNLNDFRLLLVD” the “soluble on expression in E. coli” value was “soluble”.

With “MAHHHHHHMPPSNVRKEEAELRQIAKQARLARKEVQQRERKQRQRERRAAAKNGEAATAAQQTAASSAMRTRGAIILPDEVQELRQRLMGDDAASAASAADSPARKTKKAAARKAARSPAKKSAGAAGASNHGAASSSTLVPTYHQEVHFKKKMFFVDVVLHHVPHQKIDISETNTNRLVVDTCGHTKKYRLVLPYPKGMLCDAAAATYEFENGILQCRLPIMDGAIPASLEAENAKMIEKMRQQRALRFRVTRDGDLTVRTRQALLTQAPAAQAALPEAKKAAAAQRGDDTDSDNEVVNAQAREAKGTEKMASPKSRKRTRDGDEEDSKETPQQTRSVSAKKAKGAAAAVNTLPTEAATASKPAAKKSKPDVFEAEHAKVMEAAKAAAAKVHLSMRERVKLAKAVQASREERLQTRSLRKERKEEQKQQSFHRILEEQKRQLLARASMQQPAPSPTAKVNASAKAVHFADE” the “soluble on expression in E. coli” value was “soluble”.

With “MQKAKNDYGTVVSVLKEDFHGFATGSIGAPDLNTVLTYAFPGECEYPWINFKPGYTQQQGWGGANVWQAGGTVCLNADGENFSHLNTPMLNVSGYQNIAIVRFDGVSDSLFSCLIREIRTLPSFASMPVRRKEWPIRL” the “soluble on expression in E. coli” value was “not soluble”.

For “MGSDKIHHHHHHMTKNTVRTYIKQTWKTLTRSHQHLLESAQDTKLEHQPNTPWIIYISPQEDCNTVQSVLERSLSAKEMQQIEIRTLPSEVEAIQEHGLLYLPGAYVVPGGRFNEMYGWDSYFILLGLLQDEEWELAQSQVDQLLYQVQHYGTILNANRTYMLTRSQPPVLSMMVLALFQHTQDQAWLKSTLPLLEQFYYYWVVPPHLNSATGLSRYYALGEGAAPEVLFSELDETGRSHYERVKEYYKTFEIDDYDVSLFYDSERDELTDLFYKGDRSMRESGFDITNRFGPFSVDIVHYAPVCLNSLLYQMEQDLAQIHKILDNPELAEQWSDRATLRRERINQYLWDEEKGIYLDYHFYSGKRRHYEFATTFYPLWTGLSSPEQAQRIVENLSLFTAPGGIFTSTHVTGNQWDAPFGWAPLTLIAVQGLYRYGYRKEGDDIAHKFLTMAIQEFTKYGFFVEKYDVERCSAQVSDEICFGYSSNEIGFGWTNGVILELLANLDDS”, the “soluble on expression in E. coli” value was “not soluble”.

For “MGSDKIHHHHHHMSEPVKGAQTVTRALSVLKHISHAHPFGIAIGELSEVSQLDRATTYRLASTLVSFGLVERDAARKYRLGVEAMQLGLSAMRSAPIVGQLQPAMRRLARRTEDTVFLVVRSGDYGHCIHCEEGTYPVKAMVLQVGGMRLLGVGSAGMTLLSMLSDVEVLALYQRHQEEFSRGPSFAKLKRMVGEARERGYADTVDLVTEGVSGVGMRFELSAGSHAAVSVAAIRSRMTPERKKWIAEIIAEELQVSGFTPAYSRVS”, the “soluble on expression in E. coli” value was “not soluble”.

With “MVRIIVDHSLILLYSLSAFEESKYISSEEQMQISEYINVDDKIIQRWFEIRRAPTQESWEPEVILPEAIAIFEKEFTTNPNPCSHTLEELRMKTHVQVDSINKWFDERRCAAEQNIKSDSEGSEASFSLCSSWGDTDKELKVDLKMA” the “soluble on expression in E. coli” value was “not soluble”.

In the case of “MQAAKVDTLSVHSDAMNKEVQVITICPDKAMAGEKCPVLYLLHGYGGNAGTWLGIKPELPRIADKEGIIFVCPDGKNSWYWDSPLNKEYRYETFVSKELVNYIDKNFTTKAERGGRAVTGLSMGGHGSLWLSIRHKDVFGGGGSMSGGLDIRPFPNNWEMKKQLGEEASNKQRWDEHTVINQLDKIKNGDLAVIIDCGCDDFFLEVNKAVHEKLLKKKINHDFIIRPGGHTGRYWNNAIDYQILFFSKFFNK”, the “soluble on expression in E. coli” value was “not soluble”.

For “MSYPWSNKNGEAASSSKTTVAPPLSPPRYEKVLDFSTLDTQRHRYEVRDQANQRAVVSSAKAESSMIDKFCKENTRIQTNPGIDLPDDYGTDAIVANAIGDQRIVNNLKCVHVTTFNAVQQMSIQVIREGRGLVVEAPTGIGKTYAFLIPAIEAALKNRQSNCFEYTKPSPSILIMASTSALVDQLFNRCELILGLQCMDNVEPIRDIKIDKLVANHPFTKGQCDIAFCTIGKLKATIECGDVCLDNLKTIILDEADKMIDNCAFGPDINWILDQLKEENLENLQSCFFSATYNKNANGTIALTVLQMRMLGEDDPWSVIICPRMSGYITQRVVRVGRGRPNDIRSHPWVIKMGIIRKLIDDDLKETGCSKDGPYNETIAIFCETVQRVTQVTMALRQLGYNFKPVCSMITKNQQLVTVNDLEFRKIHGVVCTNILARGIDVSSVKHTIIMEMSADFDTYKHRIGRVGRDGCGGKSTVLVEHHQLQGGPASNVIEQLYNFMKESKEDIPQWMQEWIVARRNNNIDSWA”, the “soluble on expression in E. coli” value was “not soluble”.

In the case of “MEEWDVPQMKKEVESLKYQLAFKREMSSKTIPELLKWIEDGIPKDPFLNPDLMKNNPWVEKAKCTIL”, the “soluble on expression in E. coli” value was “not soluble”.

In the case of “TKRYYKSAFPVRICVIQYEMKKIYSFEEFANQVEYYVDVASDARSDFAVFPEIFTTQLMSFLEERSPSLAVQRITEYTEDYISLFTDLAVKYNVNIIGGSHFVEEEGKIYNIAYLFRRDGTIEKQYKLHITPNERKWWGISAGDQVRVFDTDCGKIAIQICYDIEFPELARIAADKGAKIIFTPFCTEDRQGYLRVRYCSQARAVENQIYTVISGTVGNLPQTENMDIQYAQSGIFAPSDFEFARDGIVGETNPNIEMVVIGDVDLEILRRQRQNGTVRQLKDRRRDIYHIQYKK”, the “soluble on expression in E. coli” value was “not soluble”.

With “MRGQNRRGYRNIEGRLSLSSHSSHSSPRQTHVTNLRPAEIKVVQDVVDGCYVATDDVLNLSNFSKNTEFVERDMLMCLTKTRVMSVVLQHIGYKYPRISGISFSNNRLCHLDHLSSLSSISKFLKFLDLSHNQISSGEELKKLGTIPVETVFFEGNPVCEKFVQCAEYANFIQKTFPKCSNLDGMEVEPKPDHNRIEQIIPFRNGYYGSDEVRTLVEEFIITYYKIYDGADGQQTRKQLLDAYDTNNSTFTHTVVCLWDPIKFVMYPDSESYRMYLRTSHNVLNQEYFAANRASRISHGAMDIVVALSRLPATIHLMDTFVVDVFLVSATLLGFTLHGTFRDGPSAIKPENTEEHDNYFTRTFMVAPRGEGKVAIVSDQLFISSMSKRRGDQYRMLVETATDIDQ” the “soluble on expression in E. coli” value was “not soluble”.

With “SLRKIANSITEPIEQLVTAMKSVQHSGIEAGVSLSLPEHTQDEAGMLNRHFTVMMKRINELMEENVEKQLIIKETELKALQAQINPHFLYNTLESINWLAKANQQKQISKMVESLGFLLRNSIHMKKDIVTIQEEADIVRHYMTIQRFRFEERLKFTLDIDDEVKHCLIPKLTLQPLAENAIQYALEPFTRPCAIRIQAKKAKGCVCITVEDNGPGMDGRILESTGGRGIGLWNIRERISLTFGEPYGLRIHSEHEKGTRIVITIPCRNEVV” the “soluble on expression in E. coli” value was “soluble”.

In the case of “MSPILAKNIVYVAQIKGQITSYTYDQFDRYITIAEQDNAEAIIIELDTPGGRADAMMNIVQRIQQSKIPVIIYVYPPGASAASAGTYIALGSHLIAMAPGTSIGACRPILGYSQNGSIIEAPPKITNYFIAYIKSLAQESGRNATIAEEFITKDLSLTPEEALKYGVIEVVARDINELLKKSNGMKTKIPVNGRYVTLNFTNVEVRYLAPSFKDKLISYITDLEHHHHHH”, the “soluble on expression in E. coli” value was “soluble”.

For “MANADLDKQPDSVSSVLKVFGILQALGEEREIGITELSQRVMMSKSTVYRFLQTMKTLGYVAQEGESEKYSLTLKLFELGARALQNVDLIRSADIQMRELSRLTKETIHLGALDEDSIVYIHKIDSMYNLRMYSRIGRRNPLYSTAIGKVLLAWRDRDEVKQILEGVEYKRSTERTITSTEALLPVLDQVREQGYGEDNEEQEEGLRCIAVPVFDRFGVVIAGLSISFPTLRFSEERLQEYVAMLHTAARKISAQMGYHDYPF”, the “soluble on expression in E. coli” value was “soluble”.

For “MSLKKNIYPNKEGCPVEFTLDVIGGKWKGILFYHMIDGKKRFNEFRRICPSITQRMLTLQLRELEADGIVHREVYHQVPPKVEYSLTEFGRTLEPIVLQMKEWGESNRDVLESYRSNGLVKDQQKEGGSHHHHHH”, the “soluble on expression in E. coli” value was “soluble”.

In the case of “MWSEYSLEVVDAVARNGSFSAAAQELHRVPSAVSYTVRQLEEWLAVPLFERRHRDVELTAAGAWFLKEGRSVVKKMQITRQQCQQIANGWRGQLAIAVDNIVRPERTRQMIVDFYRHFDDVELLVFQEVFNGVWDALSDGRVELAIGATRAIPVGGRYTFRDMGMLSWSCVVASHHPLALMDGPFSDDTLRNWPSLVREDTSRTLPKRITWLLDNQKRLVVPDWESSATCISAGLCIGMVPTHFAKPWLNEGKWVALELENPFPDSACCLTWQQNDMSPALTWLLEYLGDSETLNKEWLREPEETPATGD”, the “soluble on expression in E. coli” value was “not soluble”.

For “MNIVSTSVALLLAAASAEVENRKSSNATEVNMTETAQIENHPYVGMWVTGDGHIRQELLPNGRYDEARGKRKSAYQGRYEVKGNHIDYWDDTGFTADGEFVDDVLHHGGMIFYRQK”, the “soluble on expression in E. coli” value was “not soluble”.

For “MGSSHHHHHHGGTGENLYFQGGSGLRQFIVPVRQTTQRAGLATPPLFGVQKCYVNMNRSVQTRWEIDSQTASQKRTEYDFDKEQWMKQMRFASMDCIMDPDITPIRYTSVAGVKKAFRRFVTMRKLMDRRPDFDPVQLKELFIHFKTLSHEKSPDCFKTLQRITTHGEADRILKEIKGRMNEDFAKKSWRSLKQQGAKSTYEMEVDSFDLVTCYMGQMSQEDWLQITYRCEFRQRESKEYDWETMMEYPVFEVRLGDGVKAPNTHPFIVVGVLKKDGTRYGKDSQDAADLRKQFDRTGRWF”, the “soluble on expression in E. coli” value was “not soluble”.

With “MKYQLNLTALRCPIPLLSAKKALKNLDKNDELMLILNLESAVENFSIFAEENSVALVEQYYASEKEFIVILKK” the “soluble on expression in E. coli” value was “not soluble”.
